Source: patent publication US20260097122A1 (AUTOLUS, published 2026)

Target: T1, recombinant soluble CD22 ectodomain (human, UniProt P20273 20-687)
T1 construct: extracellular domain; Staining reagent used to detect the 9A8 CAR on T cells; also called soluble recombinant CD22 ectodomain
T1 sequence (looked up): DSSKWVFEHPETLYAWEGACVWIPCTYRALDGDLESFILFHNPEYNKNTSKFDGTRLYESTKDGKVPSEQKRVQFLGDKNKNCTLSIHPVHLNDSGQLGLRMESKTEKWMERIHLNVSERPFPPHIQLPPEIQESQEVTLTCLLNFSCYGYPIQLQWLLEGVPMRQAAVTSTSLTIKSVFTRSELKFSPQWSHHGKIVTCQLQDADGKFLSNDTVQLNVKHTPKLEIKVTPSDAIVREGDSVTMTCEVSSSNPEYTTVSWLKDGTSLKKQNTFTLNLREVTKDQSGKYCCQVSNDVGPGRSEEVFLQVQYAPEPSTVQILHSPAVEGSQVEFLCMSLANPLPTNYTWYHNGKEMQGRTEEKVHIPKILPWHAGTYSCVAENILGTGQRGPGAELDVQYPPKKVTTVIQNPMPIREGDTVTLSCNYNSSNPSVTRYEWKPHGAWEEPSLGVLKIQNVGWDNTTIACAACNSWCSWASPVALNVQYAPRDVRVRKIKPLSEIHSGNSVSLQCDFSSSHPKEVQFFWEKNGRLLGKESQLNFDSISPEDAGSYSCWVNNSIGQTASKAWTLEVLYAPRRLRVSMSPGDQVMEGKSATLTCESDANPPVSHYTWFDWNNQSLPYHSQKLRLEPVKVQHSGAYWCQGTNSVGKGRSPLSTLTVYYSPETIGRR
Test: flow cytometry of CD19 CATCAR T cells stained with anti-idiotype and soluble recombinant CD22 ectodomain [cont.) F]
Description: FIG. 4. AUTO1/22 CAR T cells enhanced activity in vivo. A) Schedule of the in vivo model. B) and C) NSG mice were intravenously injected with 1×10⁶ Nalm-6 WT (B) or Nalm-6 CD19KO (neg) cells (C), and treated with non-transduced (NT), AUTO1 or AUTO1/22 normal donor T cells. Serial bioluminescence imaging was taken. All cells expressed HA-tagged firefly Luciferase. D) and E) Spider plot showing bioluminescence flux for each mouse over time; Nalm-6 WT (D) or Nalm-6 CD19KO (neg) cells (E). F) In vivo expansion of the different CAR T cell populations. Differential engraftment of different CAR T cell populations. The proportion of the different subpopulation of CAR T cells was determined by staining for AUTO1 with anti-idiotype and 9A8CAR with soluble recombinant CD22 ectodomain. […]
Next, the function of CD19 CAR T cells (AUTO1) and CD19/22 co-transduced CAR T cells (AUTO1/22) in vivo was determined. […] NALM6 cells were first engrafted in NSG mice by tail-vein injection, and their engraftment determined by bioluminescence imaging (BLI). […] NALM6 burden was measured sequentially using BLI. […] NALM6 burden and CAR T-cell engraftment was determined by flow cytometry.
Finally, the proportion of AUTO1, CD22CAR and AUTO1/22 CAR T cells engrafted in mice at sacrifice was determined by flow-cytometry of marrow aspirate.

- binding result: no binding
B1: CD19 CATCAR (second-generation CD19 CAR, aCD19cat-CD8STK-41BBZ) (other)
chain: QVQLQQSGPELVKPGASVKISCKASGYAFSSSWMNWVKQRPGKGLEWIGRIYPGDEDTNYSGKFKDKATLTADKSSTTAYMQLSSLTSEDSAVYFCARSLLYGDYLDYWGQGTTLTVSSGGGGSGGGGSGGGGSQIVLTQSPAIMSASPGEKVTMTCSASSSVSYMHWYQQKSGTSPKRWIYDTSKLASGVPDRFSGSGSGTSYFLTINNMEAEDAATYYCQQWNINPLTFGAGTKLELKRSDPTTTPAPRPPTPAPTIASQPLSLRPEACRPAAGGAVHTRGLDFACDIYIWAPLAGTCGVLLLSLVITLYCKRGRKKLLYIFKQPFMRPVQTTQEEDGCSCRFPEEEEGGCELRVKFSRSADAPAYQQGQNQLYNELNLGRREEYDVLDKRRGRDPEMGGKPRRKNPQEGLYNELQKDKMAEAYSEIGMKGERRRGKGHDGLYQGLSTATKDTYDALHMQALPPR
notes: Chimeric antigen receptor expressed on the surface of transduced T cells: CAT19 scFv, CD8 stalk spacer and transmembrane domain, 4-1BB-CD3 zeta endodomain; also called CAT19CAR; CATi9CAR
